This data set relates to Escherichia coli TOP10. Put plainly: shrunken log2 fold change of peptide-encoding DNA abundance (4.5 h post-induction vs induction); higher = less antimicrobial activity (less host growth inhibition). Conditions: time post-induction: 4.5 h; library: site-saturation at positions 5, 18, 19, 20.

Data on 125 sequences can be found in the supplement of paper PMC9112550, “Optimization of the antimicrobial peptide Bac7 by deep mutational scanning” (BMC Biology, 2022).
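Note: peptides expressed intracellularly from a pBAD plasmid library in pooled LB shake-flask culture, induced with 0.3% L-arabinose, DNA abundance read by NGS, three biological replicates, DESeq2 with apeglm shrinkage.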

Turning to RRIRPRPPRLPRPRPRPVRDPRP, the “shrunken log2 fold change” value worked out at 0.146.

RRIRTRPPRLPRPRPRPRQHPRP: the “shrunken log2 fold change” value was -0.374.

For the sequence RRIRDRPPRLPRPRPRPINPPRP, the “shrunken log2 fold change” value was -0.277. The result for RRIRMRPPRLPRPRPRPRWNPRP reads 0.197; that for RRIRSRPPRLPRPRPRPLMGPRP, -0.271. As for RRIRDRPPRLPRPRPRPGDQPRP, the “shrunken log2 fold change” value turned out to be 0.282. For the sequence RRIRRRPPRLPRPRPRPCNTPRP, the “shrunken log2 fold change” value was -0.295. Turning to RRIRFRPPRLPRPRPRPKPMPRP, the “shrunken log2 fold change” value is 0.521.

Turning to RRIRCRPPRLPRPRPRPWDRPRP, the “shrunken log2 fold change” value is -0.608. As to RRIRQRPPRLPRPRPRPFIDPRP, the “shrunken log2 fold change” value is -0.0223.

As for RRIRNRPPRLPRPRPRPNDIPRP, the “shrunken log2 fold change” value is -0.418. RRIRIRPPRLPRPRPRPIGEPRP: the “shrunken log2 fold change” value turned out to be 0.0399.

Regarding RRIRGRPPRLPRPRPRPYDRPRP, the “shrunken log2 fold change” value was found to be 0.136. Take RRIRCRPPRLPRPRPRPNDTPRP: the “shrunken log2 fold change” value was -0.461. Turning to RRIRNRPPRLPRPRPRPFLYPRP, the “shrunken log2 fold change” value is -0.468. For RRIRNRPPRLPRPRPRPVTAPRP the value was -0.248; for RRIRIRPPRLPRPRPRPYGCPRP, 0.0504. The result for RRIRFRPPRLPRPRPRPCLGPRP reads -0.201.

As to RRIRYRPPRLPRPRPRPQQCPRP, the “shrunken log2 fold change” value was -0.145.

Regarding RRIRDRPPRLPRPRPRPRVVPRP, the “shrunken log2 fold change” value came out at 0.11. Regarding RRIRYRPPRLPRPRPRPIWQPRP, the “shrunken log2 fold change” value is -0.105. With RRIRERPPRLPRPRPRPVVAPRP, the “shrunken log2 fold change” value came to 0.182. For RRIRIRPPRLPRPRPRPGHHPRP, the “shrunken log2 fold change” value is -0.309. For the sequence RRIRKRPPRLPRPRPRPWWFPRP, the “shrunken log2 fold change” value is -0.0467. Take RRIRARPPRLPRPRPRPHGIPRP: the “shrunken log2 fold change” value amounted to 0.0225.

As for RRIRHRPPRLPRPRPRPLVTPRP, the “shrunken log2 fold change” value amounted to 1.93.

RRIRRRPPRLPRPRPRPTTEPRP: the “shrunken log2 fold change” value was 0.0681.

On to RRIRARPPRLPRPRPRPWFRPRP, for which the “shrunken log2 fold change” value was found to be 0.133.

Take RRIRDRPPRLPRPRPRPVANPRP: the “shrunken log2 fold change” value is -0.0229. Regarding RRIRCRPPRLPRPRPRPFSQPRP, the “shrunken log2 fold change” value was -0.209.

Take RRIRFRPPRLPRPRPRPQWCPRP: the “shrunken log2 fold change” value was -0.0514. For RRIRSRPPRLPRPRPRPKAYPRP the value was -0.0451. The result for RRIRWRPPRLPRPRPRPFPYPRP reads -0.44; that for RRIRLRPPRLPRPRPRPTVFPRP, 0.156.

Regarding RRIRNRPPRLPRPRPRPCGNPRP, the “shrunken log2 fold change” value was -0.0905. For the sequence RRIRDRPPRLPRPRPRPHDMPRP, the “shrunken log2 fold change” value is -0.0819. As to RRIRIRPPRLPRPRPRPEKWPRP, the “shrunken log2 fold change” value was -0.0117.

In the case of RRIRFRPPRLPRPRPRPTMPPRP, the “shrunken log2 fold change” value is 0.0787. As for RRIRERPPRLPRPRPRPMCRPRP, the “shrunken log2 fold change” value came to 0.03. The result for RRIRKRPPRLPRPRPRPEGTPRP reads 0.0154; that for RRIRRRPPRLPRPRPRPEVEPRP, 0.0165; that for RRIRQRPPRLPRPRPRPRHCPRP, -0.0425. For RRIRGRPPRLPRPRPRPPTQPRP the value was 0.727; for RRIRLRPPRLPRPRPRPWWMPRP, -0.0102. For the sequence RRIRERPPRLPRPRPRPEDAPRP, the “shrunken log2 fold change” value was -0.079.

Take RRIRMRPPRLPRPRPRPGWCPRP: the “shrunken log2 fold change” value was found to be 0.181. As for RRIRCRPPRLPRPRPRPLIFPRP, the “shrunken log2 fold change” value is -0.514. On to RRIRTRPPRLPRPRPRPIRRPRP, for which the “shrunken log2 fold change” value worked out at 0.0581. The result for RRIRGRPPRLPRPRPRPDYNPRP reads -0.12; that for RRIRRRPPRLPRPRPRPDSWPRP, 0.115; that for RRIRYRPPRLPRPRPRPNKIPRP, -0.995. With RRIRPRPPRLPRPRPRPVALPRP, the “shrunken log2 fold change” value amounted to 0.0375.

For RRIRARPPRLPRPRPRPLFIPRP, the “shrunken log2 fold change” value was -0.331.

As to RRIRFRPPRLPRPRPRPGAAPRP, the “shrunken log2 fold change” value stood at 0.517. For RRIRWRPPRLPRPRPRPLCMPRP the value was -0.177; for RRIRWRPPRLPRPRPRPAVEPRP, 0.497; for RRIRMRPPRLPRPRPRPKGLPRP, -0.0628. For the sequence RRIRFRPPRLPRPRPRPEMYPRP, the “shrunken log2 fold change” value is -0.00146. For RRIRLRPPRLPRPRPRPMVVPRP the value was -0.0179; for RRIRTRPPRLPRPRPRPADVPRP, -0.391; for RRIRIRPPRLPRPRPRPCDGPRP, -0.00133. On to RRIRTRPPRLPRPRPRPNPHPRP, for which the “shrunken log2 fold change” value is -0.177. Regarding RRIRRRPPRLPRPRPRPWEKPRP, the “shrunken log2 fold change” value came out at 0.0936. The result for RRIRLRPPRLPRPRPRPHAMPRP reads -0.0654. With RRIRSRPPRLPRPRPRPVRWPRP, the “shrunken log2 fold change” value stood at 0.893.

RRIRCRPPRLPRPRPRPYVMPRP: the “shrunken log2 fold change” value is -0.633.

For the sequence RRIRVRPPRLPRPRPRPVVIPRP, the “shrunken log2 fold change” value was -0.401.

On to RRIRMRPPRLPRPRPRPNCWPRP, for which the “shrunken log2 fold change” value is 0.755. For RRIRVRPPRLPRPRPRPIALPRP, the “shrunken log2 fold change” value is -0.238. With RRIRMRPPRLPRPRPRPCLRPRP, the “shrunken log2 fold change” value was -0.0737. With RRIRIRPPRLPRPRPRPNAKPRP, the “shrunken log2 fold change” value was found to be 0.0022. For RRIRPRPPRLPRPRPRPWHYPRP, the “shrunken log2 fold change” value amounted to 0.0497. The result for RRIRKRPPRLPRPRPRPYVSPRP reads -0.438. The result for RRIRQRPPRLPRPRPRPAGAPRP reads 0.666; that for RRIRVRPPRLPRPRPRPICFPRP, 0.0059; that for RRIRSRPPRLPRPRPRPYTIPRP, -0.808.

Consider RRIRARPPRLPRPRPRPVNNPRP, for which the “shrunken log2 fold change” value is -0.223. Regarding RRIRPRPPRLPRPRPRPKMEPRP, the “shrunken log2 fold change” value was -0.0537. For RRIRHRPPRLPRPRPRPCDDPRP the value was -0.0661; for RRIRARPPRLPRPRPRPIHVPRP, -0.143. RRIRQRPPRLPRPRPRPRLPPRP: the “shrunken log2 fold change” value stood at 0.467.

Turning to RRIRERPPRLPRPRPRPTNRPRP, the “shrunken log2 fold change” value was -0.242. Take RRIRNRPPRLPRPRPRPQHTPRP: the “shrunken log2 fold change” value is -0.402. For RRIRQRPPRLPRPRPRPKVSPRP the value was -0.073. As to RRIRQRPPRLPRPRPRPTLKPRP, the “shrunken log2 fold change” value is -0.0628. For the sequence RRIRRRPPRLPRPRPRPSHKPRP, the “shrunken log2 fold change” value is -0.0351. As to RRIRSRPPRLPRPRPRPYCYPRP, the “shrunken log2 fold change” value was -0.0398.

Consider RRIRCRPPRLPRPRPRPRRAPRP, for which the “shrunken log2 fold change” value was 0.64. As to RRIRIRPPRLPRPRPRPGNPPRP, the “shrunken log2 fold change” value is -0.366. Consider RRIRHRPPRLPRPRPRPNWEPRP, for which the “shrunken log2 fold change” value was -0.0833.

Regarding RRIRQRPPRLPRPRPRPPFCPRP, the “shrunken log2 fold change” value is -0.284. For RRIRCRPPRLPRPRPRPLMLPRP the value was -0.646; for RRIRHRPPRLPRPRPRPEWRPRP, -0.0322; for RRIRHRPPRLPRPRPRPYLWPRP, 0.0116. The result for RRIRWRPPRLPRPRPRPAYPPRP reads 0.00826; that for RRIRSRPPRLPRPRPRPWPQPRP, 0.0548. For the sequence RRIRRRPPRLPRPRPRPLPKPRP, the “shrunken log2 fold change” value is 0.634. Regarding RRIRHRPPRLPRPRPRPQLFPRP, the “shrunken log2 fold change” value was -0.172.

As for RRIRNRPPRLPRPRPRPPNTPRP, the “shrunken log2 fold change” value is -0.0466.

For the sequence RRIRERPPRLPRPRPRPKKCPRP, the “shrunken log2 fold change” value is -0.0779. For RRIRERPPRLPRPRPRPSFMPRP the value was -0.546; for RRIRVRPPRLPRPRPRPGICPRP, -0.0598; for RRIRGRPPRLPRPRPRPCLSPRP, 0.0424. For RRIRYRPPRLPRPRPRPMHQPRP the value was -0.0734; for RRIRDRPPRLPRPRPRPATTPRP, 0.163; for RRIRHRPPRLPRPRPRPQMQPRP, -0.0236. On to RRIRKRPPRLPRPRPRPEFMPRP, for which the “shrunken log2 fold change” value is 0.541. As for RRIRIRPPRLPRPRPRPRIHPRP, the “shrunken log2 fold change” value is -0.287. Consider RRIRPRPPRLPRPRPRPHDDPRP, for which the “shrunken log2 fold change” value is -0.421. With RRIRMRPPRLPRPRPRPTYLPRP, the “shrunken log2 fold change” value is -0.497. Consider RRIRQRPPRLPRPRPRPTVWPRP, for which the “shrunken log2 fold change” value was determined as 0.339. As to RRIRKRPPRLPRPRPRPAHSPRP, the “shrunken log2 fold change” value was 0.0695.

On to RRIRQRPPRLPRPRPRPHYWPRP, for which the “shrunken log2 fold change” value came out at 0.0403.

For RRIRTRPPRLPRPRPRPHAMPRP, the “shrunken log2 fold change” value is -0.31. Turning to RRIRNRPPRLPRPRPRPAEQPRP, the “shrunken log2 fold change” value is -0.018.

Take RRIRSRPPRLPRPRPRPDGVPRP: the “shrunken log2 fold change” value is -0.115. The result for RRIRVRPPRLPRPRPRPTYDPRP reads -0.372; that for RRIRGRPPRLPRPRPRPPEVPRP, 1.02.

In the case of RRIRQRPPRLPRPRPRPHMVPRP, the “shrunken log2 fold change” value is -0.0317. The result for RRIRIRPPRLPRPRPRPVHLPRP reads -0.0973. For RRIRFRPPRLPRPRPRPCITPRP the value was -0.709. The result for RRIRNRPPRLPRPRPRPHNMPRP reads -1.06.

For RRIRYRPPRLPRPRPRPGRKPRP, the “shrunken log2 fold change” value was -0.155.

Consider RRIRVRPPRLPRPRPRPPGCPRP, for which the “shrunken log2 fold change” value came out at 0.232. The result for RRIRVRPPRLPRPRPRPGVCPRP reads 0.186.
